Results: patent EP4810607A2

How the values were obtained:
[1] = target: mouse IL-11 (endogenous, produced by mouse fibroblasts in culture) (mouse) (UniProt P47873); experiment: cell-based or functional assay
[2] = target: human IL-11 (native, secreted by human fibroblasts in culture) (human) (UniProt P20809); experiment: cell-based or functional assay
Chain of UniProt P20809 (P20809 22-199): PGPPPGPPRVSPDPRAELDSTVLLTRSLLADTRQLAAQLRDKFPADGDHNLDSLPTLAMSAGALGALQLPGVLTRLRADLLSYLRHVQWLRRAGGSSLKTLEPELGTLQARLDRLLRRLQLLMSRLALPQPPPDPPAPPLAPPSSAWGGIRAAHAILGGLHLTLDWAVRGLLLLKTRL

Chain of UniProt P47873 (P47873 22-199 limits assumed): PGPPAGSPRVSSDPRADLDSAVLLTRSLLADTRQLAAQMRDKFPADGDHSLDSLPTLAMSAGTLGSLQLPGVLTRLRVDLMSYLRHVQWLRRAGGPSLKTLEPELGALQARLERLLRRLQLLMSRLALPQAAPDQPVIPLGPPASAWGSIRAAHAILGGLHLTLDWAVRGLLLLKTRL

**Q.** Which results are given for “neutralising anti-human IL-11 monoclonal antibody (Monoclonal Mouse IgG2A; Clone #22626; Catalog No. MAB218; R&D Systems, MN, USA)”?
**A.** percentage of activated fibroblasts normalised to non-stimulated cultures, TGFβ1-stimulated mouse dermal fibroblasts (fold of non-stimulated) [1]: 1.24; percentage of activated fibroblasts relative to unstimulated cultures, TGFβ1-stimulated mouse atrial fibroblasts [1]: 1.44 fold; percentage of activated fibroblasts, TGFβ1-stimulated mouse dermal fibroblasts [1]: 39.4%; percentage of activated fibroblasts normalised to non-stimulated cultures, TGFβ1-stimulated human atrial fibroblasts (fold of non-stimulated) [2]: 0.99; percentage of activated fibroblasts relative to unstimulated cultures, TGFβ1-stimulated human atrial fibroblasts [2]: 0.89 fold; percentage of activated fibroblasts, TGFβ1-stimulated human atrial fibroblasts [2]: 28.3%
